Data taken from patent US20230127123A1 (Dana-Farber, published 2023).

biological target: T1, PD-L1 (on 293T cells stably expressing PD-L1) (human, UniProt Q9NZQ7); test: flow cytometry on 293T cells stably expressing PD-L1, percent of cells labelled, anti-hFc secondary
T1 construct: expressed on the surface of stably transfected 293T cells; also called CD274; B7-H1
T1 sequence (Q9NZQ7 19-290 limits assumed): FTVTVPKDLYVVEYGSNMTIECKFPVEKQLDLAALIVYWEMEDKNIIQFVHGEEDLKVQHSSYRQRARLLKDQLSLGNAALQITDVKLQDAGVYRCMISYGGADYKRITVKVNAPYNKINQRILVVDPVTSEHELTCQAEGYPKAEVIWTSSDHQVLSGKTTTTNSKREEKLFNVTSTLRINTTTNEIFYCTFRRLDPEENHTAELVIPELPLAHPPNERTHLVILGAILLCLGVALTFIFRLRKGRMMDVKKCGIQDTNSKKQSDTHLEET

EC50 (read off the curve) | Binder
0.2 to 0.3 nM | 1D4 (antibody, V domains shown, anti-PD-L1 clone; also called Ab 1D4) VH: QVQLVQSGGGVVQPGRSLRLSCAASGFTFSSYAIHWVRQAPGKGLEWITTISYDGSNKYYADSVKGRFTISRDNPKNTLYLQMNSLRAEDTAVYYCARGFGGPDYWGQGTLVTVSS VL: LPVLTQPSSLSASPGASASLTCTLRSGINVGTYRIYWYQQKPGSPPQYLLRYKSDSDKQQGSGVPSRFSGSKDASANAGILLISGLQSEDEADYYCMIWHSSAYVFGTGTKVTVL
~0.05 nM | 1G1 (antibody, V domains shown, anti-PD-L1 clone; also called Ab 1G1) VH: EVQLVQSGAEVKKPGSSVRVSCKASGGTFSSYAISWVRQAPGQGLEWMGRIIPILGIANYAQKFQGRVTITADKSTSTAYMELSSLRSEDTAVYYCASGSIVGAAYAFDIWGQGTTVTVSS VL: QSVLTQPPSVSVAPGKAANLNCGGKNIGGRVVHWYQQRPGQAPVLVIYDDTDRPSGIPERFSGSNSGNTATLTITDVEVGDEADYYCQVWDSRSDHPVFGGGTTLTVL
~0.1 nM | 1D2 (antibody, V domains shown, anti-PD-L1 clone; also called Ab 1D2) VH: QVQLVQSGAEVKKPGSSVKVSCKASGGTFSSYAISWVRQAPGQGLEWMGGIIPIFGTANYAQKFQGRVTITADESTSTAYMELSSLRSEDTAVYYCARDGSGYDSAGMDDWGQGTLVTVSS VL: QPGLTQPPSASGTPGQTVTISCSGSRSNIGSNYVYWYQQFPGTAPKLLIFSNNQRPSGVPDRFSGSKSGTSASLAISGLRSEDEADYYCAVWDDSLSGVVFGGGTKLTVL

biological target: PD-L1 (antigen of the kinetic measurements) (human, UniProt Q9NZQ7); test: kinetic measurements for aPDL1 antibodies; instrument and antigen format not stated
Sequence (Q9NZQ7 19-238 limits assumed): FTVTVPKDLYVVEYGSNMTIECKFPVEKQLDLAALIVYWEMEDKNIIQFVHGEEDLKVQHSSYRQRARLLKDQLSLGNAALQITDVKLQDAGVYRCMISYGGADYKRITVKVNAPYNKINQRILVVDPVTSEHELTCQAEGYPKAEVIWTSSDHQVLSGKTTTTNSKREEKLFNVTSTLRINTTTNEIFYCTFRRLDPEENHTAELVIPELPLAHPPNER

Binder | Kd | koff | kon
1A6 (antibody, V domains shown, anti-PD-L1 clone; also called Ab 1A6) VH: QVQLVQSGGEVKKPGASVKVSCKASGYTLSSHGITWVRQAPGQGLEWMGWISAHNGHASNAQKVEDRVTMTTDTSTNTAYMELRSLTADDTAVYYCARVHAALYYGMDVWGQGTLVTVSS VL: QSVLTQPPSVSVAPGQTARITCGGNNIGSKGVHWYQQKPGQAPVLVVYDDSDRPSGIPERFSGSNSGNTATLTISRVEAGDEADYYCQVWDSSSDHWVFGGGTKLTVL | 913 nM | 0.0113 s⁻¹ | 12400 M⁻¹ s⁻¹
1A2 (antibody, V domains shown, anti-PD-L1 clone; also called Ab 1A2) VH: QVQLVQSGGEVKKPGASVKVSCKASGYTLSSHGITWVRQAPGQGLEWMGWISAHNGHASNAQKVEDRVTMTTDTSTNTAYMELRSLTADDTAVYYCARVHAALYYGMDVWGQGTTVTVSS VL: QSVLTQPPSVSVAPGQTARITCGGNNIGSKGVHWYQQKPGQAPVLVVYDDSDRPSGIPERFSGSNSGNTATLTISRVEAGDEADYYCQVWDSSSDHWVFGGGTKLTVL | 0.679 nM | – | –
1A3 (antibody, V domains shown, anti-PD-L1 clone; also called Ab 1A3) VH: EVQLVQSGAEVKKPGASVKVSCKASGYTLSSHGITWVRQAPGQGLEWMGWISAHNGHASNAQKVEDRVTMTTDTSTNTAYMELRSLTPDDTAVYYCARVHAALYYGMDVWGQGTLVTVSS VL: LPVLTQPPSVSVAPGQTARITCGGNNIGSKSVHWYQQKPGQAPVLVVYDDSDRPSGIPERFSGSNSGNTATLTISRVEAGDEADYYCQVWDSSSDHWVFGGGTKLTVL | 873 nM | 0.0115 s⁻¹ | 13100 M⁻¹ s⁻¹
1C6 (antibody, V domains shown, anti-PD-L1 clone; also called Ab 1C6) VH: QVQLVQSGGEVKKPGASVKVSCKASGYTLSSHGITWVRQAPGQGLEWMGWISAHNGHASNAQKVEDRVTMTTDTSTNTAYMELRSLTPDDTAVYYCARVHAALYYGMDVWGQGTLVTVSS VL: LPVLTQPPSVSVAPGQTARITCGGNNIGSKSVHWYQQKPGQAPVLVVYDDSDRPSGIPERFSGSNSGNTATLTINRVEAGDEADYYCQVWDSSSDHWVFGGGTKLTVL | 41.6 nM | 0.01 s⁻¹ | 241000 M⁻¹ s⁻¹
1C1 (antibody, V domains shown, anti-PD-L1 clone; also called Ab 1C1) VH: QVQLVQSGAEVKKPGASVKVSCKASGYTFTSYGISWVRQAPGQGLEWMGWTSPHNGLTAFAQILEGRVTMTTDTSTNTAYMELRNLTFDDTAVYFCAKVHPVFSYALDVWGQGTLVTVSS VL: NFMLTQPHSVSESPGKTVTISCTRSSGSIASNYVQWYQQRPGSSPTTVIYEDNQRPSGVPDRFSGSIDTSSNSASLTISGLKTKDEADYYCQSYDGITVIFGGGTKLTVL | 1.23 nM | 0.000987 s⁻¹ | 802000 M⁻¹ s⁻¹
1B4 (antibody, V domains shown, anti-PD-L1 clone; also called Ab 1B4) VH: QVQLVQSGGGLVKPGGSLRLSCVGSDFAFSSAWMNWVRQAPGKGLEWVGRIKSKTDGETTDYAAPVKDRFIISRDDSKNTLYLEMNSLKTEDTGVYYCTTGGLGLVYPYYNYIDVWGEGTTVTVSS VL: LPVLTQPPSASGTPGQRVTISCSGSSSNIGSNYVYWYQQLPGTAPKLLIYRNNQRPSGVPDRFSGSKSGTSASLAISGLRSEDEADYYCAAWDDSLNGLVFGTGTRVTVL | 0.669 nM | 0.00124 s⁻¹ | 1.85e+06 M⁻¹ s⁻¹
1C4 (antibody, V domains shown, anti-PD-L1 clone; also called Ab 1C4) VH: QVQLVQSGAEVKKPGSSVKVSCKASGGTFSRYALTWVRQAPGQGLEWMGGIIPIFGRANYAQKFQGRVTITADKSTSTAYMELGSLTSDDTAVYYCAEEGAFNSLAIWGQGTMVTVSS VL: NFMLTQPHSVSESPGKTVTISCTRSSGSIASNYVQWYQQRPGSAPTTVIFADNQRPSGVPARFSGSIDSSSNSASLTISGLKTEDEADYYCQSYDSSNHWVFGGGTQLTVL | 1.16 nM | – | –

Other lines, results leading:

Kd | koff | kon | Binder
0.609 nM | 0.000745 s⁻¹ | 1.22e+06 M⁻¹ s⁻¹ | 1D1 (antibody, V domains shown, anti-PD-L1 clone; also called Ab 1D1) VH: QVQLVQSGAEVKKPGASVKVSCKASGYTFTSYGISWVRQAPGQGLEWMGWISAYNGHASNAQKVEDRVTMTTDTSTNTAYMELRNLTTDDTAVYYCARVHAALYYGMDVWGQGTTVTVSS VL: SYELTQPPSVSVAPGQTARITCGGDNIGSKGVHWYQQTPGQAPVLVVYDDSDRPSGIPERFSGSKSGNTATLTISRVEAGDEADYYCQVWDSRSDHWVFGGGTRVTVL
1.91 nM | – | – | 14C61 (antibody, V domains shown, anti-PD-L1 clone; also called Ab 14C61) VH: EVQLVQSGGEVKKPGASVKVSCKASGYTLSSHGITWVRQAPGQGLEWMGWISAHNGHASNAQKVEDRVTMTTDTSTNTAYMELRSLTPDDTAVYYCARVHAALYYGMDVWGQGTLVTVSS VL: SYELTQPPSVSVAPRQTAKITCTRDNIESRSVNWYQQRAGQAPAVIVYDDTERPSGITVRYSGSNSGNTATLTISRVEAGDEADYYCQVWDSSGDLWVFGGGTKLTVL
8.98 nM | 0.00884 s⁻¹ | 984000 M⁻¹ s⁻¹ | 1E1. (antibody, V domains shown, anti-PD-L1 clone; also called Ab 1E1) VH: QVQLVQSGVEMKKPGASVRVSCKGSGYTFSSYGISWVRQAPGQGLEWMGWISAHNGHASNAQKLEDRVTMTTDTSTNTAYMELRSLTSDDTAVYYCARVHGALYYGMDVWGQGTTVTVSS VL: SYELTQPPSVSVAPGQTARIPCGANNIGGKSVHWYQQKPGQAPVLVVYDDRDRPSGIPERFSGSNSGNTATLTISRVEAGDEADYYCQVWDSSSDHWVFGGGTKLTVL
0.461 nM | 0.000338 s⁻¹ | 733000 M⁻¹ s⁻¹ | 1F1 (antibody, V domains shown, anti-PD-L1 clone; also called Ab 1F1) VH: QVQLVQSGGEVKKPGASVKVSCKASGYTLSSHGITWVRQAPGQGLEWMGWISAHNGHASNAQKVEDRVTMTTDTSTNTAYMELRSLTPDDTAVYYCARVHAALYYGMDVWGQGTLVTVSS VL: QPVLTQPPSVSVAPGQTARITCGGDNIGSKGVHWLQQKPGQAPVLVVYDDRDRPSGIPERFSGSNSGSTATLTISRVEAGDEADYYCQVWDSSSDHWVFGGGTKLTVL
1.03 nM | – | – | 1D4 (antibody, V domains shown, anti-PD-L1 clone; also called Ab 1D4) VH: QVQLVQSGGGVVQPGRSLRLSCAASGFTFSSYAIHWVRQAPGKGLEWITTISYDGSNKYYADSVKGRFTISRDNPKNTLYLQMNSLRAEDTAVYYCARGFGGPDYWGQGTLVTVSS VL: LPVLTQPSSLSASPGASASLTCTLRSGINVGTYRIYWYQQKPGSPPQYLLRYKSDSDKQQGSGVPSRFSGSKDASANAGILLISGLQSEDEADYYCMIWHSSAYVFGTGTKVTVL
0.878 nM | – | – | 1G1 (antibody, V domains shown, anti-PD-L1 clone; also called Ab 1G1) VH: EVQLVQSGAEVKKPGSSVRVSCKASGGTFSSYAISWVRQAPGQGLEWMGRIIPILGIANYAQKFQGRVTITADKSTSTAYMELSSLRSEDTAVYYCASGSIVGAAYAFDIWGQGTTVTVSS VL: QSVLTQPPSVSVAPGKAANLNCGGKNIGGRVVHWYQQRPGQAPVLVIYDDTDRPSGIPERFSGSNSGNTATLTITDVEVGDEADYYCQVWDSRSDHPVFGGGTTLTVL
0.989 nM | 0.00133 s⁻¹ | 1.35e+06 M⁻¹ s⁻¹ | 1D2 (antibody, V domains shown, anti-PD-L1 clone; also called Ab 1D2) VH: QVQLVQSGAEVKKPGSSVKVSCKASGGTFSSYAISWVRQAPGQGLEWMGGIIPIFGTANYAQKFQGRVTITADESTSTAYMELSSLRSEDTAVYYCARDGSGYDSAGMDDWGQGTLVTVSS VL: QPGLTQPPSASGTPGQTVTISCSGSRSNIGSNYVYWYQQFPGTAPKLLIFSNNQRPSGVPDRFSGSKSGTSASLAISGLRSEDEADYYCAVWDDSLSGVVFGGGTKLTVL
1.57 nM | – | – | 1H2 (antibody, V domains shown, anti-PD-L1 clone; also called Ab 1H2) VH: QVQLVQSGGGLVKPGGSLRLSCAASGFTFSSYSMNWVRQAPGKGLVWISRIISDGSATTYADSVKGRFTISRDNAKNTLYLQMNSLRAEDTGVYYCARDRSEGGFDPWGQGTLVTVSS VL: SSELTQDPAVSVALGQTVRITCQGDSLRSYYASWYQQKPGQAPVLVIYGKNNRPSGIPDRFSGSTSGNTASLTITGAQAEDEADYYCNSRDISDNQWQWIFGGGTKLAVL
0.287 nM | 0.000367 s⁻¹ | 1.28e+06 M⁻¹ s⁻¹ | 1H5 (antibody, V domains shown, anti-PD-L1 clone; also called Ab 1H5) VH: QVQLVQSGAEVKKPGSSVKVSCKASGGTFSRYALTWVRQAPGQGLEWMGGIIPIFGRANYAQKFQGRVTITADKSTSTAYMELGSLTSDDTAVYYCAEEGAFNSLAIWGQGTMVTVSS VL: NFMLTQPHSVSGSPGETVTISCTRSSGSIASHFVQWYQQRPGSSPTTVIFGDDQRPSGVPDRISGSIDTSSNSASLSISGLKTEDEADYYCQSYDSSNHVVFGGGTKLTVL
